Results taken from patent US12163955B2, “Antibodies to methotrexate and uses thereof” (Ark Diagnostics, Inc., priority 2023, dated 2024).
“And” between values parts separate entries of the source, which are not always exact repeats. Identical values can stand only once. One block for each molecule: values may come before it.

Assay: Homogeneous enzyme immunoassay calibration curves with antibody clones and DAMP-Y-S-G6PDH conjugate
Type: biochemical
Protocol: MTX antibodies and enzyme conjugates may be advantageously used in accordance with the present disclosure in a homogeneous assay format to detect a MTX analyte in samples. Antibodies may be evaluated by known methods, such as, conjugate inhibition, conjugate modulation, calibration, cross-reactivity and spike-recovery. For these purposes, cloned antibodies (28H3-K1, 32H1-K2, 64H1-K1) is added into the antibody diluent to prepare the antibody reagent. The antibody reagent includes antibody as prepared above, buffer, salts, stabilizers, preservatives, NAD^+, and glucose-6-phosphate. Enzyme conjugate DAMP-Y-S-G6PDH is added into the conjugate diluent to prepare the enzyme conjugate reagent. The enzyme conjugate reagent includes the conjugate, buffer, stabilizers, salts, and preservatives.
A clinical chemistry analyzer useful to evaluate antibodies and enzyme conjugates in a homogeneous enzyme immunoassay format is the Beckman Coulter AU480 (Beckman Coulter, Brea, CA). The Beckman AU480 is an automated biochemistry spectrophotometer analyzer used by medical laboratories to process biological fluid specimens, such as urine, cerebrospinal fluid, oral fluids, plasma and serum. The analyzer is capable of maintaining a constant temperature, pipetting samples, mixing reagents, measuring light absorbance and timing the reaction accurately.
A homogeneous enzyme immunoassay is conducted using a liquid, ready-to-use, two reagent assay as described above. Typically, 2-15 μL MTX analyte-containing sample is incubated with 75-150 μL antibody reagent followed by the addition of the 50-100 μL enzyme conjugate reagent.
The assay is a homogeneous enzyme immunoassay technique used for the analysis of MTX in biological fluids. The assay is based on competition between MTX in the specimen and -MTX or MTX analog (DAMP derivatives of the current invention) labeled with the enzyme glucose-6-phosphate dehydrogenase (G6PDH) for antibody binding sites. Enzyme activity decreases upon binding to the antibody, so the drug concentration in the sample can be measured in terms of enzyme activity. Active enzyme converts nicotinamide adenine dinucleotide (NAD^+) to NADH, resulting in an absorbance change that is measured spectrophotometrically at 340 nm. […] The change in the absorbance at 340 nm can be measured spectrophotometrically and is proportional to the enzyme conjugate activity which in turn is related to analyte concentration (see FIG. 14).
MTX analyte antibodies and enzyme conjugate (DAMP-Y-S-G6PDH) were used in a homogeneous assay format to generate calibration curves using MTX standards as described in Example 12. Antibody reagents were prepared as described in Example 8 through 11 using DAMP-Y-KLH generated rabbit antibodies and cloned antibodies through B-cell. Enzyme conjugate DAMP-Y-S-G6PDH was used to prepare the conjugate reagent. A 6-point calibration curve was generated on the Beckman AU480 clinical chemistry analyzer as described in Examples 12. […]

[1] = antibody 82.5 μL/g, Cals 0.00 μM
[2] = antibody 82.5 μL/g, Cals 0.05 μM
[3] = antibody 82.5 μL/g, Cals 0.15 μM
[4] = antibody 82.5 μL/g, Cals 0.50 μM
[5] = antibody 82.5 μL/g, Cals 1.20 μM
[6] = antibody 90.0 μL/g, Cals 0.00 μM
[7] = antibody 90.0 μL/g, Cals 0.05 μM
[8] = antibody 90.0 μL/g, Cals 0.15 μM
[9] = antibody 90.0 μL/g, Cals 0.50 μM
[10] = antibody 90.0 μL/g, Cals 1.20 μM
[11] = antibody 100.0 μL/g, Cals 0.00 μM
[12] = antibody 100.0 μL/g, Cals 0.05 μM
[13] = antibody 100.0 μL/g, Cals 0.15 μM
[14] = antibody 100.0 μL/g, Cals 0.50 μM
[15] = antibody 100.0 μL/g, Cals 1.20 μM
[16] = antibody 200.0 μL/g, 0.00 to 0.05 μM
[17] = antibody 200.0 μL/g, 0.00 to 1.20 μM
[18] = antibody 200.0 μL/g, 0.05 to 0.15 μM
[19] = antibody 200.0 μL/g, 0.25 to 0.50 μM
[20] = antibody 200.0 μL/g, 0.50 to 1.20 μM
[21] = antibody 200.0 μL/g, Cals 0.00 μM
[22] = antibody 200.0 μL/g, Cals 0.05 μM
[23] = antibody 200.0 μL/g, Cals 0.15 μM
[24] = antibody 200.0 μL/g, Cals 0.50 μM
[25] = antibody 200.0 μL/g, Cals 1.20 μM

Separation (antibody 82.5 μL/g, 0.00 to 0.05 μM): 39.3 ΔmA/min.
Separation (antibody 82.5 μL/g, 0.00 to 1.20 μM): 256.1 ΔmA/min.
Separation (antibody 82.5 μL/g, 0.05 to 0.15 μM): 76.7 ΔmA/min.
Separation (antibody 82.5 μL/g, 0.25 to 0.50 μM): 55.8 ΔmA/min.
Separation (antibody 82.5 μL/g, 0.50 to 1.20 μM): 22.6 ΔmA/min.
Absorbance [1]: 0.3378 and 0.3384
Average Rate [1]: 338.10 mA/min
Absorbance [2]: 0.3775 and 0.3772
Average Rate [2]: 377.35 mA/min
Absorbance [3]: 0.4548 and 0.4533
Average Rate [3]: 454.05 mA/min
Absorbance [4]: 0.5708 and 0.5725
Average Rate [4]: 571.65 mA/min
Absorbance [5]: 0.5943 and 0.5941
Average Rate [5]: 594.20 mA/min
Separation (antibody 90.0 μL/g, 0.00 to 0.05 μM): 35.3 ΔmA/min.
Separation (antibody 90.0 μL/g, 0.00 to 1.20 μM): 256.5 ΔmA/min.
Separation (antibody 90.0 μL/g, 0.05 to 0.15 μM): 69.9 ΔmA/min.
Separation (antibody 90.0 μL/g, 0.25 to 0.50 μM): 60.8 ΔmA/min.
Separation (antibody 90.0 μL/g, 0.50 to 1.20 μM): 30.8 ΔmA/min.
Absorbance [6]: 0.3355 and 0.3373
Average Rate [6]: 336.40 mA/min
Absorbance [7]: 0.3723 and 0.3711
Average Rate [7]: 371.70 mA/min
Absorbance [8]: 0.4421 and 0.4412
Average Rate [8]: 441.65 mA/min
Absorbance [9]: 0.5624 and 0.5618
Average Rate [9]: 562.10 mA/min
Absorbance [10]: 0.5925 and 0.5933
Average Rate [10]: 592.90 mA/min
Separation (antibody 100.0 μL/g, 0.00 to 0.05 μM): 28.3 ΔmA/min.
Separation (antibody 100.0 μL/g, 0.00 to 1.20 μM): 250.1 ΔmA/min.
Separation (antibody 100.0 μL/g, 0.05 to 0.15 μM): 63.1 ΔmA/min.
Separation (antibody 100.0 μL/g, 0.25 to 0.50 μM): 72.9 ΔmA/min.
Separation (antibody 100.0 μL/g, 0.50 to 1.20 μM): 38.7 ΔmA/min.
Absorbance [11]: 0.3401 and 0.3411
Average Rate [11]: 340.60 mA/min
Absorbance [12]: 0.3679 and 0.3698
Average Rate [12]: 368.85 mA/min
Absorbance [13]: 0.4318 and 0.4320
Average Rate [13]: 431.90 mA/min
Absorbance [14]: 0.5529 and 0.5511
Average Rate [14]: 552.00 mA/min
Absorbance [15]: 0.5913 and 0.5901
Average Rate [15]: 590.70 mA/min
B1: 64H1/64K1: rabbit recombinant monoclonal antibody to MTX, VH SEQ ID NO: 17, VL SEQ ID NO: 21 (antibody)
VH: METGLRWLLLVAVLKGVQCQSLEESGGRLVTPGTPMTLTCTASGFSLVKYYMTWVRQAPGKGLEYIGVIWSGGMTYYASWAKGRFTISRTSTTVDLKIISPTTEDTATYFCARERDYFDGYIGNDIWGQGTLVTVSSGQPKAPSVFPLAPCCGDTPSSTVTLGCLVKGYLPEPVTVTWNSGTLTNGVRTFPSVRQSSGLYSLSSVVSVTSSSQPVTCNVAHPATNTKVDKTVAPSTCSKPTCPPPELLGGPSVFIFPPKPKDTLMISRTPEVTCVVVDVSQDDPEVQFTWYINNEQVRTARPPLREQQFNSTIRVVSTLPITHQDWLRGKEFKCKVHNKALPAPIEKTISKARGQPLEPKVYTMGPPREELSSRSVSLTCMINGFYPSDISVEWEKNGKAEDNYKTTPAVLDSDGSYFLYNKLSVPTSEWQRGDVFTCSVMHEALHNHYTQKSISRSPGK
VL: MDTRAPTQLLGLLLLWLPGATFAQVLTQTPSSVSAAVGGTVTINCQSSQSVWSRHLSWFQQKPGQPPKLLIYKASTLASGVPSRFSGSGSGTQFTLTISDVQCDDAATYYCLGGYTCIRDDCRAFGGGTEVVVKGDPVAPTVLIFPPAADQVATGTVTIVCVANKYFPDVTVTWEVDGTTQTTGIENSKTPQNSADCTYNLSSTLTLTSTQYNSHKEYTCKVTQGTTSVVQSFNRGDC

Separation [16]: 103.5 ΔmA/min.
Separation [17]: 209.7 ΔmA/min.
Separation [18]: 105.7 ΔmA/min.
Separation [19]: −0.9 ΔmA/min.
Separation [20]: 0.3 ΔmA/min.
Absorbance [21]: 0.4007 and 0.3982
Average Rate [21]: 399.45 mA/min
Absorbance [22]: 0.5023 and 0.5035
Average Rate [22]: 502.90 mA/min
Absorbance [23]: 0.6091 and 0.6080
Average Rate [23]: 608.55 mA/min
Absorbance [24]: 0.6084 and 0.6093
Average Rate [24]: 608.85 mA/min
Absorbance [25]: 0.6108 and 0.6075
Average Rate [25]: 609.15 mA/min
B2: 32H1/32K2: rabbit recombinant monoclonal antibody to MTX, VH SEQ ID NO: 9, VL SEQ ID NO: 13 (antibody)
VH: METGLRWLLLVAVLKGVQCQSLEESGGDLVKPGASLTLTCTASGLSFSSSDHWICWVRQAPGKGLESVGCIYIGSGTFVSSGTTYFASWAKGRSIISKTSSTTVTLQMTSLTAADTATYFCARGFYYTDGSGGPSYLNLWGQGTLVTVSSGQPKAPSVFPLAPCCGDTPSSTVTLGCLVKGYLPEPVTVTWNSGTLTNGVRTFPSVRQSSGLYSLSSVVSVTSSSQPVTCNVAHPATNTKVDKTVAPSTCSKPTCPPPELLGGPSVFIFPPKPKDTLMISRTPEVTCVVVDVSQDDPEVQFTWYINNEQVRTARPPLREQQFNSTIRVVSTLPITHQDWLRGKEFKCKVHNKALPAPIEKTISKARGQPLEPKVYTMGPPREELSSRSVSLTCMINGFYPSDISVEWEKNGKAEDNYKTTPAVLDSDGSYFLYNKLSVPTSEWQRGDVFTCSVMHEALHNHYTQKSISRSPGK
VL: MDTRAPTQLLGLLLLWLPGARCADIVMTQTPASVEAAVGGTVTIKCQASQTIYSYLSWFQQKPGQPPKLLIYSASTLASGVSSRFKGSRSGTESTLTISDLECADAATYYCQSYMYSSSSSFGSTFGGGTEVVVKGDPVAPTVLIFPPAADQVATGTVTIVCVANKYFPDVTVTWEVDGTTQTTGIENSKTPQNSADCTYNLSSTLTLTSTQYNSHKEYTCKVTQGTTSVVQSFNRGDC

Separation [16]: 43.2 ΔmA/min.
Separation [17]: 157.5 ΔmA/min.
Separation [18]: 76.3 ΔmA/min.
Separation [19]: 0.2 ΔmA/min.
Separation [20]: 1.8 ΔmA/min.
Absorbance [21]: 0.4534 and 0.4555
Average Rate [21]: 454.45 mA/min
Absorbance [22]: 0.4989 and 0.4964
Average Rate [22]: 497.65 mA/min
Absorbance [23]: 0.5737 and 0.5742
Average Rate [23]: 573.95 mA/min
Absorbance [24]: 0.6112 and 0.6092
Average Rate [24]: 610.20 mA/min
Absorbance [25]: 0.6095 and 0.6144
Average Rate [25]: 611.95 mA/min
B3: 28H3/28K1: rabbit recombinant monoclonal antibody to MTX, VH SEQ ID NO: 1, VL SEQ ID NO: 5 (antibody)
VH: METGPRWLLLVAVLKGVQCQSLEESGGDLVKPGASLALTCKASGLDFSRSDHWICWVRQAPGKGLESIGCIYIGSGTFVRSGTTYYASWAKGRFTISKTSSTTVTLQMTSLTGADTATYFCARGFYATDGYGGPSYLNLWGQGTLVTVSSGQPKAPSVFPLAPCCGDTPSSTVTLGCLVKGYLPEPVTVTWNSGTLTNGVRTFPSVRQSSGLYSLSSVVSVTSSSQPVTCNVAHPATNTKVDKTVAPSTCSKPTCPPPELLGGPSVFIFPPKPKDTLMISRTPEVTCVVVDVSQDDPEVQFTWYINNEQVRTARPPLREQQFNSTIRVVSTLPITHQDWLRGKEFKCKVHNKALPAPIEKTISKARGQPLEPKVYTMGPPREELSSRSVSLTCMINGFYPSDISVEWEKNGKAEDNYKTTPAVLDSDGSYFLYNKLSVPTSEWQRGDVFTCSVMHEALHNHYTQKSISRSPGK
VL: MDTRAPTQLLGLLLLWLPGARCADIVMTQTPASVEAAVGGTVTIKCQASESISSYCSWFQQKPGQPPKLLIYRASTLESGVPSRFKGSGSGTQFTLTISDLECADAATYYCQSYAYSSPDSYGSTFGGGTEVVVKGDPVAPTVLIFPPAADQVATGTVTIVCVANKYFPDVTVTWEVDGTTQTTGIENSKTPQNSADCTYNLSSTLTLTSTQYNSHKEYTCKVTQGTTSVVQSFNRGDC
